This data set can be described thus: label from the status in PepcDB records.
For the sequence “MSKFAMVFPGQGSQSLGMLADLAAQFPIVEATFSEASSVLGYDLWQLVQQGPAEELNKTWQTQPALLTASVAIWRIWQHQGGKLPSLMAGHSLGEYSALVCAGVLDFKQAVSLVELRGKLMQEAVPEGTGAMYAIIGLDNESIAKACEESAQGQVVSPVNFNSPGQVVIAGNKDAVERAGAACKAAGAKRALPLPVSVPSHCALMKPAADKLAVALEKIDFQEPLFPVVNNVDVKAEVSPVAIRSALVRQLYNPVRWTESVEFIAAEGVELLLEIGPGKVLTGLTKRIVDSLAAAAVNDVVTLNSALEH”, the protein production result was “failed”.

On to “MIIYDQHVHTSFSFDSNEKMEDYMKLAGQDFVSTEHLEFNNPEVQNHDSIPDYTKYVAEIERLKKATGKRVHKGIEIGMSAGQADKIKDYLAHHTFDIKLLSFHQDGTKDFGSNMVSHLDPLQVTDQYYQLMWKGINEFHDADVLAHFDYGVRRLSLTSGQFSTTAGVLLTNIFKVAIQNNLAFELNTKSMYKYHNIGLYDYAIEIYKQLGGKRYTIGSDAHDATHYEDHFRDALDMLKAHDIHHINVYRQGAMTVVPIDDIPEDL”, for which the protein production entry is on record as “failed”.

“MSRPPTTPSAPQTADLVRPARRGDLDGLLALARAADAGMTNLPADRAALDDRLAASEQALIDPETRNAGAAVYLVLERQGRVIGAACVFARIGVAQPFYSYRVTRLTQLSPDLGKRVEMSVLTLVNDLTDQAEVGGLFVAPDAR”: the protein production result was “failed”.

Turning to “MTVRTRVTDLLEIEHPILMGGMAWAGTPTLAAAVSEAGGLGIIGSGAMKPDDLRKAISELRQKTDKPFGVNIILVSPWADDLVKVCIEEKVPVVTFGAGNPTKYIRELKENGTKVIPVVASDSLARMVERAGADAVIAEGMESGGHIGEVTTFVLVNKVSRSVNIPVIAAGGIADGRGMAAAFALGAEAVQMGTRFVASVESDVHPVYKEKIVKASIRDTVVTGAKLGHPARVLRTPFARKIQEMEFENPMQAEEMLVGSLRRAVVEGDLERGSFMVGQSAGLIDEIKPVKQIIEDILKEFKETVEKLRGYIEE”, the protein production entry is “not failed”.

For the sequence “MIPFTIEYIFVLIGAFLLSIILTPIIRVISLKVGAVDKPNARRINKVPMPSSGGLAIFLSFVVTTLFFMPMAASRHFIEVSYFHYILPVIIGGLVVTTTGFIDDIFELRPRYKMLGIIIAAIIIWKFTHFRFDSFKIPIGGPLLEFGPILTFFLTVLWIISITNAINLIDGLDGLVSGVSIISLATMAVVSYFFLPKIDFFLTLTIVILIASIVGFFPYNYHPAIIYLGDAGALFIGFMIGVLSLQGLKNSTAVAVITPVIILGVPILDTAVAIVRRKLSGKKISEADKMHLHHRLLSMGFTHRGAVLVVYGIAIIFSLIALLLNVSSRIGGIFLLLALLLAMEIFIEGLNIWGENRTPLFNLLKFIGNSDYRQSVIAKYSDKHQK”, the protein production result is “failed”.

As for “MDIRQVTETIAMIEEQNFDIRTITMGISLLDCIDPDINRAAEKIYQKITTKAANLVAVGDEIAAELGIPIVNKRVSVTPISLIGAATDATDYVVLAKALDKAAKEIGVDFIGGFSALVQKGYQKGDEILINSIPRALAETDKVCSSVNIGSTKSGINMTAVADMGRIIKETANLSDMGVAKLVVFANAVEDNPFMAGAFHGVGEADVIINVGVSGPGVVKRALEKVRGQSFDVVAETVKKTAFKITRIGQLVGQMASERLGVEFGIVDLSLAPTPAVGDSVARVLEEMGLETVGTHGTTAALALLNDQVKKGGVMACNQVGGLSGAFIPVSEDEGMIAAVQNGSLNLEKLEAMTAICSVGLDMIAIPEDTPAETIAAMIADEAAIGVINMKTTAVRIIPKGKEGDMIEFGGLLGTAPVMKVNGASSVDFISRGGQIPAPIHSFKN”, the protein production result is recorded as “not failed”.

Consider “MTVKHLAIAPEGKKSLRLSWTNVAFFTTIHALALLAPWFFSWSALGLLLFLHWLFGSIGICLGYHRLLSHKSFQVPKWLEYAIATIGALAMQGGPIFWIGGHRQHHAHTEDVYLDPYSSQRGFWWSHMLWILYPRSEFFDYEIYQKYAPDLARQPFYRWLDRYFLLLQIPFGLMLYAIGGWSFVIYGVVLRAVLLWHSTWFVNSATHMWGYRTFNADDNARNLWWVSIVTYGEGWHNNHHTYPNVAKAGFQWWEVDVTWWSIKLLQTLGLAKKVVLPPSQRMNQG”, for which the protein production result is on record as “failed”.

For “MDKILEILKDFGIVELRPPQKKALERGLLDKNKNFLISIPTASGKTLIGEMALINHLLDGNKNPTNKKGIFIVPLKALASEKYEEFKSKYERYGLRIALSIGDYDEDEDLSKYHLIITTAEKLDSLWRHKIDWINDVSVVVVDEIHLINDETRGGTLEILLTKLKEFNVQIIGLSATIGNPDELAEWLNAELIVDDWRPVELKKGIYKNEAIEFINGEIREIKAVDNNDIYNLVVDCVKEGGCCLVFCNTKRNAVNEAKKLNLKKFLTEEEKIRLKEIAEEILSILEPPTEMCKTLAECILNGSAFHHAGLTYQHRKIVEDAFRKRLIKVICCTPTLCLNANTEILQESGFRKITELNKDEKVFALCGKEIKPVDGWKVHKTPQHEYNIVVKTVNGLEITTTPNHIFLVKENGSLKEKEAKDLKVGDYVATVDRIRVKEKDIDLSNGDLYFIGYFIGDGYTGVIEKNTLKATPDLAFNPKYPPNFDDSELHKKYFLKCRISKGVAHYIYSKKLRKIFNKLNMLTKDNKNIDAFCNLPLDKLAYLIAGLFDSDGYIYLNRKNIEFYSISEKLVEQLQFVLLRFGIHSSIRKKKTKTMVSPTNGKEYKCKDIYVLTIRDFMSIKRFYENIPLRHEEKRRKLEEIIKNKEIGQIPSEFVALRFTPIAKIWCDCGFSVDLTMFKPRTKRQRELNKKRVKLLFELLDGKKLITNYKEYYSKRKNPYFDFIVREKINGNNYYSLNEKGRVLMSLLNKHIKDKENLEEMYNFLVNLEKCPICGKPIHKEMRYSWKKECYDGDIYWDRIKEIKKIKVNDKYAYDIELPDDGSNSHYIVANGFIVHNSAGLNLPCRRAIVKDLTRFTNKGMRYIPIMEIQQCIGRAGRPGLDPYGEGIIVAKNDRDYLRAYQALTQKPEPIYSKLSNQAVLRTQLLGLIATGEIRDEYDLEWFIRNTFYAHQYGNLREVAKNINEVIRFLEENEFIIDFMPTELGKRVSELYIDPLSAKFIIDGLEEMENEEEIYYLYLISKTLEMMPNLRVYNSEELNLIDEMDSLGIKSFEIEDLEAFKTAKMLYDWINEVPEDEILKRYKIEPGILRYKVENAVWIMHALKEIAKLIGKSSDIPEKLEIRLEYGAKEDIIELLSIKYIGRVRARKLYNAGIRSIEDIINNPSKVASIIGEKIAKKILDELGVKFGQQKLSF”, the protein production entry is “failed”.

“MTDESDALCATEKEIMHATHRALVNSGYAELSISRISDELDKAKSTIYHYYDSKDALLLRFLRFTVDRFEATINTSIGDNPKEDLNHIISTLLPCQLPEEKRQLHSVLVTLSPQALERAVFREQFTEIDTRLATIIEKTVRRGVDADVFRDVDPTHAAEHILATIKGTMYSRLTTNREAATAAAKASLFSYIDSHLIS”: the protein production result is listed as “failed”.

With “PKTGPTMTKELVFSSNIGQHDLDTKSKQIQQWIEKKYHVQVTIKRRKDAEQSEEETEEIFNQILQTMPDIATFSSRPKAIRGGTASMCVFRHLSKKEEK”, the protein production entry is reported as “not failed”.

Turning to “MKKLLVIRNDKIGDFMLCFPAFMMLKQSMPNIEITALVPNYTAPLAELCPAIDHLIIDNTDKQDPIAFKQVQQAVQNGQFDAVICFVSSWYNAKLTWQSGIRYRLAPATKLFQFLYNHRLTQRRSQSIKAESEYNLDLARAFLIDHHMMPVEPQLEHHHHHH”, the protein production result was “not failed”.

In the case of “MTIGYRDAAGDPLFPWLMEIKNSMEDLYAGKNSGYDLDKLLFDCISTYKKDSRYRNDLRFLKIWEDFERVYREIEETEICKGHSLLYEWYAIFLEVKGLWRRANSVYQTGLSRKAEPFDRLKEAHSLFLQRISKRTKASSLEKVGDDAQATDLETGFVNPWETSTVNGLIHKIKPQLVKYDGYHVSNKVFPGKANLSSLQNYSRNKIIEIGILFSYQSSLSPLQDKESFFLL”, the protein production entry was “failed”.

In the case of “METMFDTLLQLPLFQGLCHEDFTSILDKVKLHFIKHKAGETIIKSGNPCTQLCFLLKGEISIVTNAKENIYTVIEQIEAPYLIEPQSLFGMNTNYASSYVAHTEVHTVCISKAFVLSDLFRYDIFRLNYMNIVSNRAQNLYSRLWDEPTLDLKSKIIRFFLSHCEKPQGEKTFKVKMDDLARCLDDTRLNISKTLNELQDNGLIELHRKEILIPDAQKLL”, the protein production entry was “not failed”.

For the origin of these results see a protein production outcome set (Wang et al. 2014).
